Patent US20160297889A1 (TORAY INDUSTRIES, published 2016)

T1: CAPRIN-1 protein expressed on the membrane surface of human cancer cells (human, UniProt Q14444 2-709)
T1 sequence (looked up): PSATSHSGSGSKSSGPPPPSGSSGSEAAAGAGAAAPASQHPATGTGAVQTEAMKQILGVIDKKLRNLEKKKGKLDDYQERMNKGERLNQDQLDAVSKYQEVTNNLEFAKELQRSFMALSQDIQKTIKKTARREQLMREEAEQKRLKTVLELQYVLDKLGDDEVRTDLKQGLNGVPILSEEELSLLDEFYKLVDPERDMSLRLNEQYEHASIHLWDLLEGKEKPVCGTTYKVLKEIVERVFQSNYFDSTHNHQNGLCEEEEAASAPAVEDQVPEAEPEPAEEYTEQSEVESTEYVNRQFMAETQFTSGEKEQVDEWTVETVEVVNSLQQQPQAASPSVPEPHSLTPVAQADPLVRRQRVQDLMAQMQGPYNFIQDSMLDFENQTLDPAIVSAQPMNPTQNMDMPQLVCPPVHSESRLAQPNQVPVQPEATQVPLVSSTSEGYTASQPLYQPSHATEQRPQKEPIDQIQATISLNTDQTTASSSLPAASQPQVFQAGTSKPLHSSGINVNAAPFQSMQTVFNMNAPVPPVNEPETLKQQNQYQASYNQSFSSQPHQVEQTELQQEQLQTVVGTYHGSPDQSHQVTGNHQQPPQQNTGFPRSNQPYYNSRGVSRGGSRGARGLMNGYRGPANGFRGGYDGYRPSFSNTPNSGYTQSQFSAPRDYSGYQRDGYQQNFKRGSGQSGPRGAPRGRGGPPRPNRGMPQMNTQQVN


Biological target: T1, CAPRIN-1 protein expressed on the …
Test: cell-based or functional assay

Row | Binder | ADCC cytotoxic activity (51Cr release) on 22Rv1 [%] | ADCC cytotoxic activity (51Cr release) on A-673 [%] | ADCC cytotoxic activity (51Cr release) on BT-474 [%] | ADCC cytotoxic activity (51Cr release) on Caki-2 [%] | ADCC cytotoxic activity (51Cr release) on FaDu [%] | ADCC cytotoxic activity (51Cr release) on G-361 [%] | ADCC cytotoxic activity (51Cr release) on HEC-1-A [%] | ADCC cytotoxic activity (51Cr release) on HT-29 [%] | ADCC cytotoxic activity (51Cr release) on HT-1080 [%] | ADCC cytotoxic activity (51Cr release) on HT-1376 [%] | ADCC cytotoxic activity (51Cr release) on Hep3B [%] | ADCC cytotoxic activity (51Cr release) on IM-9 [%] | ADCC cytotoxic activity (51Cr release) on MDA-MB-361 [%] | ADCC cytotoxic activity (51Cr release) on NCI-H2452 [%] | ADCC cytotoxic activity (51Cr release) on NCI-N87 [%] | ADCC cytotoxic activity (51Cr release) on NT/D1 [%] | ADCC cytotoxic activity (51Cr release) on OCI-AML5 [%] | ADCC cytotoxic activity (51Cr release) on OE33 [%] | ADCC cytotoxic activity (51Cr release) on Panc10.5 [%] | ADCC cytotoxic activity (51Cr release) on QG56 [%] | further results
1 | humanized antibody #10 (antibody, V domains shown) VH: EQSLVESGGGLVQPGGSLRLSCAASGFSLSSHSLGWVRQAPGKGLEWIGDIRSGGSAYYANWAKGRFTISRDNSKNTLYLQMNSLRAEDTAVYYCTRTNGPSDLTNRLDLWGQGTLVTVSS VL: QVLTQSPSSLSASVGDRVTINCQASQSLYNNENLAWFQQKPGKVPKRLIYGASTLASGVSSRFSGSGSGTEFTLTISSLQCEDFAIYYCLGEFSCGSADCFAFGGGTKVEIK | ≥ 49 | ≥ 50 | ≥ 54 | ≥ 37 | ≥ 50 | ≥ 25 | ≥ 52 | ≥ 43 | ≥ 30 | ≥ 45 | ≥ 28 | ≥ 35 | ≥ 52 | ≥ 35 | ≥ 45 | ≥ 37 | ≥ 20 | ≥ 35 | ≥ 35 | ≥ 46 | ADCC cytotoxic activity (51Cr release) on RD-ES: ≥ 48%; ADCC cytotoxic activity (51Cr release) on RPM11666: ≥ 40%; ADCC cytotoxic activity (51Cr release) on Ramos: ≥ 20%; ADCC cytotoxic activity (51Cr release) on SKOV3: ≥ 35%; ADCC cytotoxic activity (51Cr release) on T24: ≥ 36%; ADCC cytotoxic activity (51Cr release) on TGBC14TKB: ≥ 35%; ADCC cytotoxic activity (51Cr release) on TT: ≥ 42%; ADCC cytotoxic activity (51Cr release) on U-87MG: ≥ 36%
2 | humanized antibody #2 (antibody, V domains shown) VH: EVQLVESGGGLVQPGGSLRLSCAASGFSLSSHSLGWVRQAPGKGLEWIGDIRSGGSAYYANWAKGRFTISRDNSKNTLYLQMNSLRAEDTAVYYCTRTNGPSDLTNRLDLWGQGTLVTVSS VL: EIVLTQSPSSLSASVGDRVTINCQASQSLYNNENLAWFQQKPGKVPKRLIYGASTLASGVSSRFSGSGSGTEFTLTISNLQPEDFATYYCLGEFSCGSADCFAFGGGTKVEIK | ≥ 45 | ≥ 46 | ≥ 50 | ≥ 33 | ≥ 40 | ≥ 21 | ≥ 45 | ≥ 40 | ≥ 25 | ≥ 40 | ≥ 25 | ≥ 30 | ≥ 45 | ≥ 39 | ≥ 38 | ≥ 30 | ≥ 18 | ≥ 33 | ≥ 30 | ≥ 42 | ADCC cytotoxic activity (51Cr release) on RD-ES: ≥ 40%; ADCC cytotoxic activity (51Cr release) on RPM11666: ≥ 36%; ADCC cytotoxic activity (51Cr release) on Ramos: ≥ 18%; ADCC cytotoxic activity (51Cr release) on SKOV3: ≥ 31%; ADCC cytotoxic activity (51Cr release) on T24: ≥ 33%; ADCC cytotoxic activity (51Cr release) on TGBC14TKB: ≥ 30%; ADCC cytotoxic activity (51Cr release) on TT: ≥ 35%; ADCC cytotoxic activity (51Cr release) on U-87MG: ≥ 29%
3 | humanized antibody #0 (antibody, V domains shown) VH: EVQLVESGGGLVQPGGSLRLSCAASGFSLSSHSLGWVRQAPGKGLEWIGDIRSGGSAYYANWAKGRFTISRDNSKNTLYLQMNSLRAEDTAVYFCTRTNGPSDLTNRLDLWGQGTLVTVSS VL: AIQMTQSPSSLSASVGDRVTINCQASQSLYNNENLAWFQQKPGKAPKRLIYGASTLASGVSSRFSGSGSGTDFTLTISSLQPEDFAIYYCLGEFSCGSADCFAFGGGTKVEIK | ≥ 38 | ≥ 40 | ≥ 46 | ≥ 26 | ≥ 35 | ≥ 15 | ≥ 40 | ≥ 35 | ≥ 20 | ≥ 28 | ≥ 21 | ≥ 27 | ≥ 40 | ≥ 31 | ≥ 34 | ≥ 25 | ≥ 15 | ≥ 30 | ≥ 24 | ≥ 38 | ADCC cytotoxic activity (51Cr release) on RD-ES: ≥ 31%; ADCC cytotoxic activity (51Cr release) on RPM11666: ≥ 30%; ADCC cytotoxic activity (51Cr release) on Ramos: ≥ 15%; ADCC cytotoxic activity (51Cr release) on SKOV3: ≥ 27%; ADCC cytotoxic activity (51Cr release) on T24: ≥ 30%; ADCC cytotoxic activity (51Cr release) on TGBC14TKB: ≥ 25%; ADCC cytotoxic activity (51Cr release) on TT: ≥ 30%; ADCC cytotoxic activity (51Cr release) on U-87MG: ≥ 24%
